Data on two substances can be found in PMC11676905.

The term stoichiometry N denotes the number of molecules, sites or subunits per partner or assembly.

The target of test [1] is rTBL-1 R103Q mutant lectin (Phaseolus acutifolius). Briefly: SEC; ENrich SEC 650 column calibrated with gel filtration standard; 200 µL of sample at 10 mg/mL; 20 mM MES, 100 mM NaCl, pH 6.5; single peak at approximately 120 kDa. On the technique in general: In gel filtration, larger molecules generally elute earlier.
In test [2] the target is rTBL-1 R130Q mutant lectin (Phaseolus acutifolius). Described as above.

As to “rTBL-1 R103Q mutant lectin (natural protein)”, the stoichiometry N in test [1] turned out to be 4.
In test [2], “rTBL-1 R130Q mutant lectin (natural protein)” displayed a stoichiometry N of 4.
